# Test: soluble on expression in E. coli; label from the status in PepcDB or PDB records
row,Sequence,soluble on expression in E. coli
1,MGSDKIHHHHHHMSKLNLVHLNGLRAVEAVGRLGSLQAAASELGVSIGAISQQVIKAEQQLQLQLFERTSRGMVPTDVAEPVLDRLSAGFRHLSGAVALALKSDDTVLTISVAPVFAARWLVHRIGAFSERFPTIRLRMEASDRLIDPSSSDVDLCIRVGRGDWPGVRAELLLEQKVFPVCTPAMAKRLQSPADLLELPIVEDGRAMFSWDVWLAAAGLPGRSVCTRHVFSEASLCLDAALAGQGVLLAWQTIASQQLQQGQLVAPFGPAVPTGLAHYFVSPEGARRNDKVDAFKRWLRDELHEDMTRLAKAIPFLGGPFLKGECG,not soluble
2,MGSDKIHHHHHHMVGMLERTIAGLQRNNMAGYFVHNRQELMALLSGLMEKGQTVGCGDSVTLEELGVFDFLRKGDYIFYDKYVPGLTSEDKRRLYIQNFAADTFITGTNAVTTDGKLFNIDGNGSRVAPMIYGPRQVIVVVGTNKITEDVESAIQRVRQIAAPMDAKRLKKETPCTKLNRCVDCRHPQRICNDFVLITGQFVKDRIKVIIIDMEIGY,not soluble
3,MKVSKIYTTIDAHVAGEPLRIITGGVPEIKGETQLERRAYCMEHLDYLREILMYEPRGHHGMYGCIITPPASAHADFGVLFMHNEGWSTMCGHGIIAVITVGIETGMFEVTGEKQKFIIDSPAGEVIAYATYSGSEVESVSFENVPSFVYKKDVPIKIDSYEFQVDIAFGGAFYAVVDSKEFGLKVDFKDLSAIQMWGGKIKHYIESKMEVKHPLEEGLKGIYGVIFSDDPKEKDATLRNVTIFADGQVDRSPCGTGTSARIATLFAKDALQKGEIFVHECITDGKFEGEVLSVTAVHTYEAVVPKVTGNAFITGFHQFVVDPRDDLNRGFLLGLEHHHHHH,not soluble
4,MGSDKIHHHHHHMHTGPTVFKQLLQFLPRYEFNLCVRRHRGEYREKKFSTYDQFLCLAYAQMAGRESLRDIETCLNSHQEKLYHIGFRGDVSRTTLADANERRDWRIFQDFGHVLIGIAQQLYQADAISVELTQPLYAFDSTTIDLCLTLFPWAEFRKTKAAVKMHTLIDLRGPIPTWVTITTGKVHDVRMLDHLPVAKDAIYTMDRGYVDFARLHSIHKQGAFFVVRAKDNLKCQRLYSHPKDKESGVRADQIITLVTQKSKKGYPEKLRRVSYVDKERNKRLVFLTNNFEIPAATVAAIYKQRWQVELFFKWIKQHLRIKSFIGTSVNAVKSQIWVALCIYLLVAITKKKLGVPCSLYTFLQILEVNLFEKKPISSLVAEALKRNADYPERNQLNLFNY,not soluble
5,MTLKLIENLQKLGFTGNEAKVYSSLVCLKQAKASEIAENAGVPRPKIYGTLRTMEKKGYVRIIEGEPTIFCCIQPEELILRLKSDFLLFLRETASELNSLNPGNSDFVSEGFYRERIKV,not soluble
6,MGSDKIHHHHHHMKISVLGAGCIGGSIALKLKEKHHVTAFDRDEETMKALEENGIETVSKESDLYDTDLLVLALPMSVEERFLKETDFSGKILDVASVKTPFMEIARERGLNFTGGHPMAGNERKGKSGWDREMFDGKIFFLCSLDGKEDGMIENIVKDLGARPLWIDYRIHDEIVAAVSHVQYLISLSARYVGKPFEEYAGPGYLSNTRLSKQNMEMALDMIRYNKENILKYLENARNFLNVLYHLTEKEDFENLKKVIREVIS,not soluble
7,MSVEKLIVDHMETWTSALQTRSTAGRGSSGKIDLYGIKKLRELILELAVRGKLVPQDPNDEPASDLLKRIAAEKAELVKQGKIKKQKPLPEISEEEKPFELPEGWEWVHLPDIYCSISESSRKIKSSEILPEGKYPVIEQSQEFISGYCNNECLLIKLNNPVIVFGDHTRNIKFIDFDFVVGADGVKILSPILICERFFFWQLRSFKLDVRGYARHFKVLNSCLFALPPIAEQERIVEKVSSLMSLCDQLEQQSLTSLDAHQQLVETLLGTLTDSQNTAELAENWARISEHFDTLFTTEASVDALKQTILQLAVMGKLVPQDPNDEPASELLKRIAQEKAQLVKEGKIQKPLPPISDEEKPFELPEGWEWCRIGNIVNIKSELVSPKDYLNLYQVAPDIIEKGTGRVISKRTVKESGVKGPNSRFYKGQIVYSKIRPSLSKVFLAEYNGLCSADMYPLDCYINPNYLLKYILSIPFLMQVKKAENRIKMPKLNSDSFYNIIVAIPPYNEQQAIFDKINSIEAVCNGLISYIGIYHKTQLHLADALTDAAIN,not soluble
8,SHRKFVVQLFAEEWGQYVDLPKGFAVSERCKVRLVPLQIQLTTLGNLTPSSTVFFCCDMQERFRPAIKYFGDIISVGQRLLQGARILGIPVIVTEQYPKGLGSTVQEIDLTGVKLVLPKTKFSMVLPEVEAALAEIPGVRSVVLFGVETHVCIQQTALELVGRGVEVHIVADATSSRSMMDRMFALERLARTGIIVTTSEAVLLQLVADKDHPKFKEIQNLIKASAPESGLLSKV,soluble
9,MSLVDTEIWLRLMSISSLYGDDMVRIAHWLARQSHIDAVVLQQTGLTLRQAQRFLSFPRKSIESSLCWLEQPNHHLIPADSEFYPPQLLATTDYPGALFVEGELHALHSFQLAVVGSRAHSWYGERWGRLFCETLAKHGVTITSGLARGIDGVAHKAALQVNGVSIAVLGNGLNTIHPRRHARLAASLLEQGGALVSEFPLDVPPLAYNFPRRNRIISGLSKGVLVVEAALRSGSLVTARCALEQGREVFALPGPIGNPGSEGPHWLIKQGAILVTEPEEILENLQFGLHWLPDAPENSFYSPDQEDVALPFPELLANVGDEVTPVDVVAERAGQPVPEVVTQLLELELAGWIAAVPGGYVRLRRACHVRRTNVFVEGHHHHHH,soluble
10,MKDLVDTTEMYLRTIYELEEEGVTPLRARIAERLEQSGPTVSQTVARMERDGLVVVASDRSLQMTPTGRTLATAVMRKHRLAERLLTDIIGLDINKVHDEASRWEHVMSDEVERRLVKVLKDVSRSPFGNPIPGLDELGVGNSDAAAPGTRVIDAATSMPRKVRIVQINEIFQVETDQFTQLLDADIRVGSEVEIVDRDGHITLSHNGKDVELLDDLAHTIRIEEL,soluble
11,MKHTIGILGGMGPAATADMLEKFVELRHASCDQQHIPLIVSSIPDIPDRTACLLSGGPSPYRYLERYLHMLEDAGAECIVIPCNTAHYWFDDLQNVAKARMISILDATLGDIPPSARHVGLLATNATLATGLYQKKALARGLTLIQPEDAGQALVMQAIYTLKRGDKTAAQALLLPQIDSLIARGAQAIIMGCTEIPLIVAGHERAIACPMIDSTASLVRAAIRWYESWPDTRASLTGEQRLTA,not soluble
12,SAPVGVEKKLLLGPNGPAVAAAGDLTSEEEEGQSLWSSILSEVSTRARSKLPSGKNILVFGEDGSGKTTLMTKLQGAEHGKKGRGLEYLYLSVHDEDRDDHTRCNVWILDGDLYHKGLLKFAVSAESLPETLVIFVADMSRPWTVMESLQKWASVLREHIDKMKIPPEKMRELERKFVKDFQDYMEPEEGCQGSPQRRGPLTSGSDEENVALPLGDNVLTHNLGIPVLVVCTKCDAVSVLEKEHDYRDEHLDFIQSHLRRFCLQYGAALIYTSVKEEKNLDLLYKYIVHKTYGFHFTTPALVVEKDAVFIPAGWDNEKKIAILHENFTTVKPEDAYEDFIVKPPVRKLVHDKELAAEDEQVFLMKQQSLLAKQPATPTRASESPARGPSGSPRTQGRGGPASVPSSSPGTSVKKPDPNIKNNAASEGVLASFFNSLLSKKTGSPGSPGAGGVQSTAKNSGQKTVLSNVQEELDRMTRKPDSMVTNSSTENEA,soluble
13,MIQKQHESKLEVGQTFPVTIKRLGINGEGVGYFKRQVVFIPGALPGEEVVAETTKIQRGFAEAKVKKVRKASPHRVKAPCPVYEECGGCQLQHLDYKEQLNQKRDIVVQAFEKYMKNSMEEKIRPTLGMENPWHYRNKSQLQVGRKDEKVITGLYKQNSHQLIDIAHCMIQHKATNEATKVVRRILEKLNVSIYNEKKQKGLVRTIVTRTAVQTGEVQVTLITTKEELPNKEQFIAEVQKQMPAVKSIMQNVNWRKTSVIFGDKTFKLAGKEVIQETLGDLSFELSARAFFQLNPEQTVVLYNEAKKAAALTGNEKIVDAYCGVGTIGLWLANDAAEVRGMDVIPEAIADARKNAKRHGFTNTKYEAGKAEQWLPKWVKEGWRPDVIVVDPPRTGCDDKLLETILKVKPKQVVYVSCNPSSLARDVQALMKSYEVEYVQPVDMFPHTAHVENVVKLTLK,not soluble
14,NKDFWIKGMGNFTLAKGRYEVYEEPDYASYGQGYRSRIGQPINFNYGYIAERLFIDENDVANSPSQTSFNGGAMPGDIKYKDLNNDGKITSEDQIFLGYPNQPEITYGFGFSTGYKGFDLSMFFQGNARVSFFIDPRNTSPFVNYDAGGKTGVQQCLDVIAKDHWSEDNRNIYAFWPRLSPTLVENNMQTSTWWMHDGSFIRLKTVELGYTFSQKALKKIGVQSLRLYLTGSNLLTFSKFKLWDAEMGNNGLGYPIQRVYNLGININF,not soluble
15,MTSLVRGQNTPLTSPQLTVTVSGVTPGSVDLMVFQVTTTGNVRSDSDFVFFNQPASPEGAVRLTGPSTVDVDVTKVPHSIDRLRLAVSMDDSAPGSLAAIPGLGVTLGSVSAPALGLTTERAAVLAEIYRRGEQWKIRNVSAGWDTGLKALVTEHGVVVDDAPSHPPAPTYPSTPPAQPPAPVIAPPAPTPTPAPQPRVQRSKITLTKASPTVSLAKGGDTGTMRVNLNWTRGRRGLFGGNGAIDLDLACLYQLNDGSKGVVQALGNAFGDLHYPPYIALDGDDRSGTNAGGENLHINLAHLADFKRILIFAYIYDGTPNWSAADGIVTLYPPHGPEVEVRLDSPDNRARSCAIALLKNERNELTVTREVRYINGTQSDISKAYRWGLKWTAGRK,not soluble
16,MSLQFSFDPVSNAPMVSFPSTQQPDLEKLRFKFAPVLSRSFAFNGGSRTGTLYGVQVPYVDNSKEFSQYAAKLFEVYKSLGADKQFAVPTIGLINHTSTLEHNQTVNLALEAIVSELELFIESLKYSGRQQRLVDLEECLSILNCLKTVQFTLDSEEENSRAKFIDSLISWVNRTDGEPSEAVIAKVLGDGKQTPILENPYFWRLLCQLIIRGLFDQAVAAIEKSELLSYLADKCSATHTMVQDMVNLLQGYPRELEPVYREWKDLVLQLHLNWSQSEHKISIELASSLEDCLLIMCGNKSKIIYYSKTWYECYCGLMLYYIPSLQLSEEYLQLVLKEHPLDVTSPWEQACVSIITGKIYSILPVLDSLDSCTAAFTAAICEAKGLLENDLLDDGGLEVSNTGDEMFGLGNTMASYLLNQFALSIVTYEDKNLWAVAIGIIYLTPNYSDAAKRMMIAELLPHYPFQTNDDIEWMLTICAKWKLPQIARTIYRVLGQEALYLNNIIEAISNFSKAGEFEWVKEGHHHHHH,soluble
17,ASNIYKIKEENKNEDICFIAGIGDTNGYGWGIAKELSKRNVKIIFGIWPPVYNIFMKNYKNGKFDNDMIIDKDKKMNILDMLPFDASFDTANDIDEETKNNKRYNMLQNYTIEDVANLIHQKYGKINMLVHSLANAKEVQKDLLNTSRKGYLDALSKSSYSLISLCKYFVNIMKPQSSIISLTYHASQKVVPGYGGGMSSAKAALESDTRVLAYHLGRNYNIRINTISAGPLKSRAATAINKLNNTYENNTNQNKNRNSHDVHNIMNNSGEKEEKKNSASQNYTFIDYAIEYSEKYAPLRQKLLSTDIGSVASFLLSRESRAITGQTIYVDNGLNIMFLPDDIYRNENE,soluble
18,MNAAQVQALIRMGLPMAEDIDFRVERLDERHALARIPFHGKLVRPGGTLSGPTIMALADAAMYAVILGRLGAVEMAVTSNLNINFLSKPRPEDLLAEASILKLGRRQVVCEVGVFSQSNEEDLVAHVTGTYALPLLEHHHHHH,soluble
